Entries after “also recorded” stand apart in the source; their conditions may differ. One block for each molecule: values may come before it. Where no end group is shown, it is not given here.
What was measured:
osteogenic cells [1] = assay: Adhesion inhibition assay (cell attachment to VnP-16 after preincubation); assay type: cell-based, human; conditions: 5 mM EDTA, 500 μM MnCl2, 100 μg/mL heparin, 10 μg/mL blocking antibody; VnP-16 9.1 μg/cm^2, 1 hour
Protocol: Cells (5×10^4 cells/250 μL) were preincubated with 5 mM EDTA, 500 μM MnCl2, 100 μg/mL heparin, and 10 μg/mL function-blocking antibodies against integrin α1 (FB12), α2 (P1E6), α3 (P1B5), α4 (P4C2), α5 (P1D6), α6 (NKI-GoH3), β3 (B3A; Chemicon), av (AV1), β1 (6S6; Millipore), or β3 (B3A) subunits at 37° C. for 15 minutes. […] The attached cells were quantified as described in Example 6.

FAK = FAK (Homo sapiens, UniProt Q05397); conditions: pretreated 1 hour; VnP-16 9.1 μg/cm^2
[2] = tested on: osteoblast precursors and osteogenic cells
Protocol: SKP-derived mesenchymal cells (MSCs), mouse calvarial osteoblast precursors (MC3T3-E1), and human osteogenic cells (Osteogenic) were cultured on VnP-16 (9.1 μg/cm^2)-coated plates in osteogenic differentiation medium with or without PF-573228 (1 μM) for 2 weeks.
To visualize mineral deposits, cells were fixed with cold 95% ethanol for 30 minutes at −20° C. for 30 minutes and stained with 40 mM Alizarin red S solution (pH 4.2) for 1 hour. The stained cells were washed five times with DDW and rinsed with PBS for 15 minutes.

osteogenic cells [3] = assay: Cell spreading assay on coated plates; assay type: cell-based, human; conditions: serum-free medium, 3 hours
Excerpt: (§1) Plates were gently washed three times with PBS.

[4] = tested on: rat models with critical-size calvarial defects; assay: Rat critical-size calvarial defect model; assay type: in vivo; conditions: collagen sponge implant, two weeks after surgery
Protocol: For critical-size calvarial defects, 8-week-old male Sprague-Dawley rats (n=5 rats/group) were used. VnP-16 was dissolved in DDW and SP in DMSO (5 mg/mL) and then diluted with DDW. Absorbable collagen sponges (Bioland) were loaded with human recombinant BMP-2 (4 μg/cm^2, 15 μL volume; PeproTech), synthetic peptides (1 mg/cm^2 and 2 mg/cm^2, 15 μL volume), or vehicle (10 μL of DMSO and 5 μL of DDW). The surgical procedures for the creation of an 8 mm circular defect in the parietal bone and implantation of the collagen sponge were performed as described in the reference (Lee, J. H., et al., Biomaterials, 31, 3512 to 3519 (2010)). The rats were euthanized at 2 weeks after surgery, and whole calvaria were fixed in 4% paraformaldehyde at 4° C. for 24 hours and analyzed by μCT scanning. Details for the μCT scans are illustrated below.
For histomorphometric analysis, the specimens were decalcified with 12% EDTA for 4 weeks and embedded in paraffin. […] The mice were sacrificed on day 7, and the whole calvariae were dissected, cleaned of soft tissue, fixed in 4% paraformaldehyde at 4° C. for 24 hours, subjected to TRAP staining, and then analyzed by μCT scanning. μCT was performed with the Micro-CT Skyscan 1172 system (70 kV, 141 μA, and 38 minutes integration time; Skyscan). […] The regenerated bone volume and bone mineral content were calculated with CT Analyser version 1.14.4.1 (Bruker-microCT). […]

[5] = tested on: osteogenic cells, NHDFs, NHOFs, MC3T3-E1, and NIH/3T3 cells; assay: Cell viability assay (water-soluble tetrazolium salt, WST); assay type: cell-based, human; conditions: VnP-16 for 24 hours and 48 hours
Protocol: The viability of human osteogenic cells was analyzed using the EZ-Cytox cell viability assay kit (water-soluble tetrazolium salt (WST) assay; Daeillab). Osteogenic cells (3×10^3 cells/100 μL) were seeded on a 96-well microplate, adapted for 48 hours, and treated with 50 μg/mL, 100 μg/mL, or 200 μg/mL of VnP-16 at 37° C. for 24 hours or 48 hours. The WST reagent solution (10 μL) was added to each well of the 96-well microplate containing 100 μL of cells. The plate was incubated at 37° C. for 2 hours. The absorbance was measured at 450 nm using a microplate reader (BioRad).

BMMs = assay: Proliferation and viability of BMMs; assay type: cell-based, mouse; conditions: 9.1 μg/cm^2
mature osteoclasts = assay: Viability of mature osteoclasts (surviving osteoclasts after TRAP staining); assay type: cell-based, mouse; conditions: 24 hours, 9.1 μg/cm^2
Protocol: The results of FIGS. 12b and 12c are expressed as mean±S.D. (n=4) ([…].)
Mature osteoclasts were cultured for 24 hours on Osteo Assay Surface plates precoated with vehicle (DMSO), SP (9.1 μg/cm^2), or VnP-16 (9.1 μg/cm^2), in the presence of M-CSF (30 ng/mL) and RANKL (100 ng/mL).

β1 integrin = biological target: T1, β1 integrin (Homo sapiens, UniProt P05556); assay: Pulldown assay with biotinylated VnP-16; assay type: binding; conditions: human osteogenic cells and HOS cells, 3 hours; vs streptavidin beads alone
T1 construct: osteogenic cells that were transfected with a control (Con) siRNA (10 nM) or β1 integrin siRNA (10 nM); endogenous in cells; host or cells: human osteogenic cells differentiated from foreskin skin-derived precursors (SKPs)
Protocol: Pulldown assays were performed using a biotinylated VnP-16 peptide according to a known method (Bottcher, R. T., Bio protocol 3, e962 (2013)). […] Cells (3×10^6) were seeded onto 100 mm culture dishes coated with biotin-conjugated VnP-16 peptides, incubated for 3 hours, and washed twice with cold PBS. The cells were scraped with 500 μL lysis buffer (50 mM Tris-HCl, pH 7.5, 150 mM NaCl, 0.1% Na-deoxycholate, 1% Triton X-100, protease, and phosphatase inhibitor cocktail tablets) followed by passing the lysates 15 times through a 26.5-gauge needle and centrifuging at 17,000×g for 10 minutes at 4° C. The supernatants of the cell lysates were incubated with 60 μL of streptavidin-agarose beads (Thermo Fisher Scientific, Waltham, Mass.) and centrifuged at 1,500×g for 2 minutes at 4° C. After washing the beads four times with lysis buffer, the precipitated proteins were resolved by 8% SDS-PAGE and analyzed by immunoblotting.

human osteogenic cells = assay: Cell attachment assay on coated plates; assay type: cell-based; conditions: for cell attachment activity of osteogenic cells: substrate-coated plates, serum-free medium, 1 hour; for coating concentration at which cell attachment activity reached a maximum level: osteogenic cells, dose-response
Excerpt: as §1

osteogenic cells [6] = assay: Cell migration assay (transwell); assay type: cell-based, human; conditions: 24 hours
Protocol: Cell migration assays were performed with transwell migration chambers (pore size, 8 μm; Corning). […] Cells (2×10^5 cells/mL) were resuspended in DMEM containing 0.5% FBS and 0.1% BSA. This suspension (100 μL) was seeded in the upper chamber of a transwell filter. After seeding the […] (100 μL) to the upper chamber of the transwell migration chambers, the cells were allowed to migrate at 37° C. for 24 hours. Cells were then fixed with 10% formalin for 15 minutes and stained with 0.5% crystal violet. Unmigrated cells, those remaining in the upper side of the transwell filter, were removed with a cotton swab and counted under light microscopy. Cell migration was quantified by counting the number of cells that had migrated through the filter.

[7] = VnP-16-coated plates, osteogenic differentiation medium, PF-573228 1 μM, 2 weeks

Chain of FAK (Q05397 whole entry): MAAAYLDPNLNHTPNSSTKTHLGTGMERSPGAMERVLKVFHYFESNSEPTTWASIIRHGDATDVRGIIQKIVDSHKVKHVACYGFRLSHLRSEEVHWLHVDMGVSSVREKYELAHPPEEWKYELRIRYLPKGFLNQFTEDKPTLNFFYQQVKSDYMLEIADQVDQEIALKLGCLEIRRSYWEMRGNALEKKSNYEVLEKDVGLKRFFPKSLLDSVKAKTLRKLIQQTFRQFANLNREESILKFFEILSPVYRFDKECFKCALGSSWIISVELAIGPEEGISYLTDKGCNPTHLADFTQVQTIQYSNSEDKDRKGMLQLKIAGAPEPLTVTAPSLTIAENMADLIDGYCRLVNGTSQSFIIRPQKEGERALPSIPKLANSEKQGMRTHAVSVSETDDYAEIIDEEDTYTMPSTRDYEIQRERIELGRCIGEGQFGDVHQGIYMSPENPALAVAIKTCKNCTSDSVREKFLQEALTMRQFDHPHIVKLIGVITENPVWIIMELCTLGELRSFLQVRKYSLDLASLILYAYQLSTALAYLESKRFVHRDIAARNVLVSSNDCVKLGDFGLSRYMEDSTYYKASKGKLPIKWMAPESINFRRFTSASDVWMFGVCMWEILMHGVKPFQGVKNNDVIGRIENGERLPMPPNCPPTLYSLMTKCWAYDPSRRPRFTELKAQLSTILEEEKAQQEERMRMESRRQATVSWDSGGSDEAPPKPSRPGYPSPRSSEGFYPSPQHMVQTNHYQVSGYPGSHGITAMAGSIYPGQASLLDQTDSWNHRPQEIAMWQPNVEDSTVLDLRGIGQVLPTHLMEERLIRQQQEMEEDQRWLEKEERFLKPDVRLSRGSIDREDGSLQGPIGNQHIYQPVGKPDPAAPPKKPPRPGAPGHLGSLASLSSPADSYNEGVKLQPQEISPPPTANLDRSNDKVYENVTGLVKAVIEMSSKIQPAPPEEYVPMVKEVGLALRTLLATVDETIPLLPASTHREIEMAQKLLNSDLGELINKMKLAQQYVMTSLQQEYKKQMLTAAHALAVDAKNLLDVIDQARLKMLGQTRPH
T1 sequence (P05556 21-798): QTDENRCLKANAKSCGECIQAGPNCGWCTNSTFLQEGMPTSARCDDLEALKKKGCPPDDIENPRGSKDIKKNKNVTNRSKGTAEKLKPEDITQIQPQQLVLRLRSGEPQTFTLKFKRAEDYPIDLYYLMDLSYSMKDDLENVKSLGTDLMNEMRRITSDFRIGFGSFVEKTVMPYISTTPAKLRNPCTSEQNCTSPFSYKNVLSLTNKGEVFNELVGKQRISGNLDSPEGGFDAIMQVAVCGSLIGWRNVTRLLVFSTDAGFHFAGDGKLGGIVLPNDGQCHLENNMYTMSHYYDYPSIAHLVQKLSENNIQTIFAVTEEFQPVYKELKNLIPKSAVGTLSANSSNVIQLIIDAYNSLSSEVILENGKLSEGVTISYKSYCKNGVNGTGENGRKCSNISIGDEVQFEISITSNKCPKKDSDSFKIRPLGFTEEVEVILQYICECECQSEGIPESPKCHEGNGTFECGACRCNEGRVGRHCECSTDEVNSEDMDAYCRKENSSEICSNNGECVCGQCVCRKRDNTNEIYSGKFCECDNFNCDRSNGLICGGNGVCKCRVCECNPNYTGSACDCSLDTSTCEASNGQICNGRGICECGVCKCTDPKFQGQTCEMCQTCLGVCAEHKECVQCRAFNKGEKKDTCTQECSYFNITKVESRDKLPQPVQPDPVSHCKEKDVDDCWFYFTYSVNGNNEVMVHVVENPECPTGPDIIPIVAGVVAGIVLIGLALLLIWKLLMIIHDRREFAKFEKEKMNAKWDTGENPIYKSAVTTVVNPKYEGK

Molecule: O=C(O)CN(CCN(CC(=O)O)CC(=O)O)CC(=O)O [EDTA]
cell attachment to VnP-16 after pretreatment of cells (osteogenic cells [1]): completely inhibited

Molecule: [Cl][Mn][Cl] [Mn^2+, MnCl2]
cell attachment to VnP-16 after pretreatment of cells (osteogenic cells [1]): significantly enhanced

Molecule: CS(=O)(=O)c1cccc(CNc2nc(Nc3ccc4c(c3)CCC(=O)N4)ncc2C(F)(F)F)c1 [PF-573228]
cell attachment to VnP-16 after pretreatment of PF-573228 (FAK): significantly inhibited in a dose-dependent manner | cell growth [2]: did not affect | alkaline phosphatase (ALP) activity [2, 7]: notably weakened | calcium deposition [2, 7]: reduced

Molecule: FVWRQFYKYEKG (SEQ ID NO: 23) (Scrambled peptide) [SP, scrambled peptide used as control, reference compound]
cell spreading (osteogenic cells [3]): ineffective | new bone formation in calvarial defects (μCT images) [4]: only limited new bone formation

Molecule: RVYFFKGKQYWE-NH2 [VnP-16, RVYFFKGKQYWE (SEQ ID NO: 17)]
viability of cells or cell lines tested [5]: did not affect | cell proliferation and viability of BMMs (BMMs): did not affect | viability of osteoclasts (mature osteoclasts): no effect

binding of β1 integrin in pulldown (β1 integrin): selectively bound
Molecule: biotinylated VnP-16: biotin-conjugated VnP-16 peptide used for pulldown (RVYFFKGKQYWE-NH2; also: biotinylated)

Molecule: heparin
cell attachment to VnP-16 after pretreatment of cells (osteogenic cells [1]): not inhibited

B1: human plasma vitronectin: Human vitronectin purchased from Millipore (protein, UniProt P04004 20-478, looked up)
Vitronectin: DQESCKGRCTEGFNVDKKCQCDELCSYYQSCCTDYTAECKPQVTRGDVFTMPEDEYTVYDDGEEKNNATVHEQVGGPSLTSDLQAQSKGNPEQTPVLKPEEEAPAPEVGASKPEGIDSRPETLHPGRPQPPAEEELCSGKPFDAFTDLKNGSLFAFRGQYCYELDEKAVRPGYPKLIRDVWGIEGPIDAAFTRINCQGKTYLFKGSQYWRFEDGVLDPDYPRNISDGFDGIPDNVDAALALPAHSYSGRERVYFFKGKQYWEYQFQHQPSQEECEGSSLSAVFEHFAMMQRDSWEDIFELLFWGRTSAGTRQPQFISRDWHGVPGQVDAAMAGRIYISGMAPRPSLAKKQRFRHRNRKGYRSQRGHSRGRNQNSRRPSRATWLSLFSSEESNLGANNYDDYRMDWLVPATCEPIQSVFFFSGDKYYRVNLRTRRVDTVDPPYPRSIAQYWLGCPAPGHL
cell attachment activity of osteogenic cells (human osteogenic cells): strongly promoted | cell migration (osteogenic cells [6]): strongly promoted | cell spreading (osteogenic cells [3]): strongly promoted

B2: rVn-FIII: recombinant human vitronectin truncation III expressed in E. coli (protein)
chain: GRTSAGTRQPQFISRDWHGVPGQVDAAMAGRIYISGMAPRPSLAKKQRFRHRNRKGYRSQRGHSRGRNQNSRRPSRATWLSLFSSEESNLGANNYDDYRMDWLVPATCEPIQSVFFFSGDKYYRVNLRTRRVDTVDPPYPRSIAQYWLGCPAPGHL
modifications: rVn-FIII
notes: recombinant human vitronectin truncation III expressed in E. coli
cell attachment activity of osteogenic cells (human osteogenic cells): did not adhere | cell migration (osteogenic cells [6]): induced no cell spreading or migration | cell spreading (osteogenic cells [3]): induced no cell spreading or migration

B3: rVn-FII: recombinant human vitronectin truncation, 173 residues, amino acids at positions 150 to 322 (protein)
chain: PAEEELCSGKPFDAFTDLKNGSLFAFRGQYCYELDEKAVRPGYPKLIRDVWGIEGPIDAAFTRINCQGKTYLFKGSQYWRFEDGVLDPDYPRNISDGFDGIPDNVDAALALPAHSYSGRERVYFFKGKQYWEYQFQHQPSQEECEGSSLSAVFEHFAMMQRDSWEDIFELLFW
modifications: rVn-FII
coating concentration at which cell attachment activity reached a maximum level (human osteogenic cells): about 5.7 μg/cm^2 | cell attachment activity of osteogenic cells (human osteogenic cells): lower cell attachment activity compared to that of rVn-FI; also recorded: adhered; also recorded: promoted cell attachment, although to a lower extent than full-length vitronectin; also recorded: significant cell attachment activity | cell migration (osteogenic cells [6]): induced no cell spreading or migration | cell spreading (osteogenic cells [3]): induced no cell spreading or migration

B4: rVn-FI: recombinant human vitronectin truncation I expressed in E. coli (protein)
chain: DQESCKGRCTEGFNVDKKCQCDELCSYYQSCCTDYTAECKPQVTRGDVFTMPEDEYTVYDDGEEKNNATVHEQVGGPSLTSDLQAQSKGNPEQTPVLKPEEEAPAPEVGASKPEGIDSRPETLHPGRPQP
modifications: rVn-FI
notes: recombinant human vitronectin truncation I expressed in E. coli
coating concentration at which cell attachment activity reached a maximum level (human osteogenic cells): about 5.7 μg/cm^2 | cell attachment activity of osteogenic cells (human osteogenic cells): adhered; also recorded: promoted cell attachment, although to a lower extent than full-length vitronectin | cell migration (osteogenic cells [6]): induced cell spreading and migration | cell spreading (osteogenic cells [3]): induced cell spreading and migration

Source: patent US10588946B2, “Peptide for promoting bone formation or inhibiting bone resorption and use thereof” (SEOUL NATIONAL UNIVERSITY R&DB FOUNDATION, priority 2015, dated 2020)
